Experimental data from patent US20210070855A1 (NANJING LEGEND BIOTECH, published 2021).
Substitutions are numbered along the chain they refer to.

B1: 98E2E7 (antibody, V domains shown)
VH: QVQLQQSGPQLVRPGASVKISCKASGYSFTNHWMHWMKQRPGQGLEWIGMIDPSDSETRLNQQFKDKATLTVDKSSSTAYMQLSSPTSEDSAVFYCARLGRYYFDYWGQGTTLTVSS
VL: NIVMTQSPKSMSVSVGERVTLSCRASDIVGTYVSWYQQKPEQSPKLLIYGASNRYTGVPDRFTGSRSATDFSLTISNVQAEDLADYLCGQSYDSPYTFGGGTKLEIK
notes: purified murine anti-CD47 hybridoma antibody; same VH and VL as 98E2E12; also called 03-98E2E7
B2: 98E2E12 (antibody, V domains shown)
VH: B1 VH
VL: B1 VL
notes: purified murine anti-CD47 hybridoma antibody; same VH and VL as 98E2E7; also called 04-98E2E12
B3: 107F11B11 (antibody, V domains shown)
VH: EVQLQQSGAEFVKPGASVKLSCTASGFNIEDTYMHWVKQRPEQGLEWIGMIDPANGKTKYGPRFQDKATVTADTSSNTANLQLSSLTSEDTAVYYCADGIGYYVGAMDYWGQGTSVTVSS
VL: DIQMNQSPSSLSASLGDTITITCHASQNINVWLSWYQQKPGNIPKLLIYKASNLHTGVPSRFSGSGSGTGFTLTISSLQPEDIATYYCQQGHSYPYTFGGGTKLEIK
notes: purified murine anti-CD47 hybridoma antibody; same VH and VL as 107F11C4 and 107F11F10; also called 07-107F11B11
B4: 108C10A6 (antibody, V domains shown)
VH: QMQLQQSGPQLVRPGASVKISCKTSGYSFTHHWIHWMKQRPGQGLEWIGMIDPSDSETRLSQKFKDKATLTVDASSSTAYMQLNSPTSEDSALYFCARLGRYYFDYWGQGTTLTVSS
VL: NIVMTQSPRSMSMSVGERVTLSCKASENVGTYISWYQQKPDQSPKLLIYGASNRYTGVPDRFTGSGSGTDFTLTISTVQAEDLADYHCGESYGHLYTFGGGTKLEIK
notes: also called murine anti-CD47 antibody 108C10A6; 108C10A6/108C10F5
B5: 112E5D9 (antibody, V domains shown)
VH: B1 VH with H32N, K65R, S75T, F94Y, Q109L
VL: B1 VL with L21M, S22N, D27E, S52F, A68G, T74N
notes: purified murine anti-CD47 hybridoma antibody; same VH and VL as 112E5F2 and 112E5H7; also called 10-112E5D9
B6: 55F2C4 (antibody, V domains shown)
VH: B1 VH with H32Y, T71A, F94Y
VL: B1 VL with S12Y, S22I, D27E
notes: also called 01-55F2C4
B7: 108VH4.M4_VL1.M1-hIgG1 (antibody)
heavy: not shown
light: EIVLTQSPATLSLSPGERATLSCRASENVGTYISWYQQKPGQAPRLLIYGASNRYTGIPARFSGSGSGTDFTLTISSLEPEDFAVYYCGESYGHLYTFGGGTKVEIKRTVAAPSVFIFPPSDEQLKSGTASVVCLLNNFYPREAKVQWKVDNALQSGNSQESVTEQDSKDSTYSLSSTLTLSKADYEKHKVYACEVTHQGLSSPVTKSFNRGEC
notes: Humanized 108C10A6, human IgG1 with kappa light chain; also called 108VH4.M4_VL1.M1-hlgG1; 108VH4.M4_VL1.M1-hIgG1-Ka
B8: 108VH4.M4_VL1.M1-hIgG2 (antibody)
heavy: EVQLVQSGAEVKKPGSSVKVSCKASGYSFTHHWIHWVRQAPGQGLEWMGMIDASDSETRLSQKFKDRVTITADKSTSTAYMELSSLRSEDTAVYYCARLGRYYFDYWGQGTTVTVSSASTKGPSVFPLAPCSRSTSESTAALGCLVKDYFPEPVTVSWNSGALTSGVHTFPAVLQSSGLYSLSSVVTVPSSNFGTQTYTCNVDHKPSNTKVDKTVERKCCVECPPCPAPPVAGPSVFLFPPKPKDTLMISRTPEVTCVVVDVSHEDPEVQFNWYVDGVEVHNAKTKPREEQFNSTFRVVSVLTVVHQDWLNGKEYKCKVSNKGLPAPIEKTISKTKGQPREPQVYTLPPSREEMTKNQVSLTCLVKGFYPSDIAVEWESNGQPENNYKTTPPMLDSDGSFFLYSKLTVDKSRWQQGNVFSCSVMHEALHNHYTQKSLSLSPGK
light: B7 light
notes: Humanized 108C10A6, human IgG2 with kappa light chain; also called 108VH4.M4_VL1.M1-hlgG2; 108VH4.M4_VL1.M1-hIgG2-Ka
B9: 98G5F6 (antibody, V domains shown)
VH: B1 VH with H32Y, F94Y, Y106F
VL: B1 VL with D27E, Y55F
notes: purified murine anti-CD47 hybridoma antibody; same VH and VL as 98G5F11; also called 05-98G5F6
B10: 112E5F2 (antibody, V domains shown)
VH: B1 VH with H32N, K65R, S75T, F94Y, Q109L
VL: B1 VL with L21M, S22N, D27E, S52F, A68G, T74N
notes: purified murine anti-CD47 hybridoma antibody; same VH and VL as 112E5D9 and 112E5H7; also called 11-112E5F2
B11: 112E5H7 (antibody, V domains shown)
VH: B1 VH with H32N, K65R, S75T, F94Y, Q109L
VL: B1 VL with L21M, S22N, D27E, S52F, A68G, T74N
notes: purified murine anti-CD47 hybridoma antibody; same VH and VL as 112E5D9 and 112E5F2; also called 12-112E5H7
B12: 107F11C4 (antibody, V domains shown)
VH: B3 VH
VL: B3 VL
notes: purified murine anti-CD47 hybridoma antibody; same VH and VL as 107F11B11 and 107F11F10
B13: 108C10F5 (antibody, V domains shown)
VH: B4 VH
VL: B4 VL
notes: purified murine anti-CD47 hybridoma antibody; separate subclone with its own curves; same VH and VL as 108C10A6; also called 09-108C10F5
B14: 98G5F11 (antibody, V domains shown)
VH: B1 VH with H32Y, F94Y, Y106F
VL: B1 VL with D27E, Y55F
notes: purified murine anti-CD47 hybridoma antibody; same VH and VL as 98G5F6; also called 06-98G5F11

biological target: T1, cynomolgus monkey CD47 on CHO-K1 cells (cynomolgus monkey, UniProt A0A5F8AK49 19-323 (rhesus entry)); assay: flow cytometry on CHO-K1/cyno CD47 cells
T1 construct: whole, on cells; also called CHO-K1/cyno CD47; CHO-K1/cynoCD47
Protocol: (§1) Briefly, binding to cell-expressed cyno CD47 was evaluated on cynomolgus monkey CD47 over-expressing CHO cells. Anti-CD47 antibody dilution series was prepared in FACS buffer. CHO-K1/cynomolgus monkey CD47 cell were transferred to a 96-well U-bottom plate and add CD47 antibody dilution. After 30 minutes incubation at 4° C., cells were washed twice with FACS buffer. […] The cells were washed twice with wash buffer, and then analyzed for binding by using FACSCalibur (BD Bioscience, San Jose, Calif.) and Flowjo software.

First: B1
Second: B2
The “EC50 (read off the curve)” value of the first is 1.5-fold higher: roughly 3 nM for the first, roughly 2 nM for the second.

In the case of B3, the “EC50 (read off the curve)” value is reported as roughly 1 nM.

biological target: T2, human CD47 on cells (human, UniProt Q08722 19-323); assay: flow cytometry on human red blood cells; unit taken from the axis
T2 construct: also called CHO-K1/huCD47; human CD47 over-expressed in CHO-K1 cells

Compared with B2, B4 is 5.8-fold higher in EC50: 9.63 ng/mL for the first, 55.8 ng/mL for the second.

biological target: T2, human CD47 on cells; assay: flow cytometry, blocking of human SIRPα binding to CHO-K1/huCD47 cells
Protocol: (§2) After 30 minutes incubation at 4° C., cells were washed twice with FACS buffer.

B5 and B6 are within 1.5-fold of each other in “IC50 (read off the curve)” value: roughly 4 nM for the first, roughly 5 nM for the second.

Compared with B3, B4 is 2-fold lower in “IC50 (read off the curve)” value: roughly 2 nM for the first, roughly 1 nM for the second.

biological target: T2, human CD47 on cells; assay: flow cytometry on red blood cells; unit taken from the axis

Compared with B7, B8 is 2.1-fold higher in EC50: 2.62 nM for the first, 5.51 nM for the second.

biological target: T2, human CD47 on cells; assay: flow cytometry, blocking of human SIRPα binding to CHO-K1/huCD47 cells; the box on the sheet is labelled EC50; unit taken from the axis
Protocol: as §2

Compared with B9, B10 is 2.3-fold lower in IC50: 6.97 nM for the first, 2.98 nM for the second. The second is the more potent here.

B11 and B2 are within 1.5-fold of each other in IC50: 3.4 nM for the first, 3.74 nM for the second.

B12 was tested, and the IC50 was 1.07 nM.

biological target: T1, cynomolgus monkey CD47 on CHO-K1 cells; assay: flow cytometry on CHO-K1/cyno CD47 cells; unit taken from the axis
Protocol: as §1

Work on B12 yielded an EC50 of 1.13 nM.

biological target: T2, human CD47 on cells; assay: flow cytometry, blocking of human SIRPα binding to CHO-K1/huCD47 cells; the box on the sheet is labelled EC50; unit taken from the axis; remark: another data set of the same source

Compared with B7, B8 is 2.1-fold higher in IC50: 0.911 nM for the first, 1.87 nM for the second.

biological target: T1, cynomolgus monkey CD47 on CHO-K1 cells; assay: flow cytometry on CHO-K1/cyno CD47 cells; unit taken from the axis; remark: another data set of the same source
Protocol: as §1

B12 showed an EC50 of 1.13 nM.

biological target: T2, human CD47 on cells; assay: flow cytometry on CHO-K1/huCD47 cells; unit taken from the axis
Protocol: (§3) Binding to cell-expressed human CD47 was evaluated on human CD47 over-expressing CHO cells (GenScript, Cat #M00581). Anti-CD47 antibody dilution series was prepared in FACS buffer. CHO-K1/human CD47 cells were transferred to a 96-well U-bottom plate and anti-CD47 antibody dilution was added. […] The cells were then washed twice with wash buffer. Cells were analyzed for binding by FACSCalibur (BD Bioscience, San Jose, Calif.) and Flowjo software.

First: B7
Second: B8
The EC50 of the first is 4.7-fold lower: 0.299 nM for the first, 1.4 nM for the second. The first is the more potent here.

biological target: T1, cynomolgus monkey CD47 on CHO-K1 cells; assay: flow cytometry on CHO-K1/cynoCD47 cells; unit taken from the axis
Protocol: as §1

Going from B7 to B8, the EC50 rises from 0.262 nM to 1.31 nM (5-fold).

biological target: T3, CD47 protein; assay: ELISA on CD47 protein; x axis is log10 of mAb (ng/ml), unit taken from the axis
T3 construct: also called CD47 (ELISA antigen); not shown: The carrier of the coated recombinant protein (an Fc tag as in CD47-Fc, or a His tag as in CD47-His)

B9 and B5 are within 1.5-fold of each other in EC50: 3.53 ng/mL for the first, 4.77 ng/mL for the second.

Compared with B1, B11 is 2.6-fold higher in EC50: 3.78 ng/mL for the first, 9.81 ng/mL for the second.

Compared with B6, B2 is 1.9-fold higher in EC50: 1.39 ng/mL for the first, 2.59 ng/mL for the second.

Going from B4 to B13, the EC50 falls from 62.1 ng/mL to 23.4 ng/mL (2.7-fold).

biological target: T2, human CD47 on cells; assay: flow cytometry on CHO-K1/huCD47 cells; x axis Log(nM), unit taken from the axis
Protocol: as §3

B9 and B5 are within 1.5-fold of each other in EC50: 3.48 nM for the first, 3.47 nM for the second.

First: B10
Second: B6
The EC50 of the first is 17-fold lower: 3.15 nM for the first, 52.5 nM for the second. The first is the more potent here.

B2 and B4 are within 1.5-fold of each other in EC50: 8.21 nM for the first, 8.59 nM for the second.

biological target: T1, cynomolgus monkey CD47 on CHO-K1 cells; assay: flow cytometry on CHO-K1/cyno CD47 cells; unit taken from the axis; remark: another data set of the same source
Protocol: as §1

B5 and B10 are within 1.5-fold of each other in EC50: 1.45 nM for the first, 1.81 nM for the second.

Compared with B11, B6 is 3.8-fold higher in EC50: 1.53 nM for the first, 5.75 nM for the second. The first is the more potent here.

B4 and B13 are within 1.5-fold of each other in EC50: 2.03 nM for the first, 2.01 nM for the second.

biological target: T4, human CD47-His protein (human, UniProt Q08722 19-139, limits assumed); assay: SPR (Biacore T200), antibody captured, human CD47-His as analyte, 1:1 model
T4 construct: It includes the signal peptide and the membrane-spanning region, which a soluble protein would lack; not shown: His tag

B7 and B8 are within 1.5-fold of each other in Kd: 1.4 nM for the first, 1.5 nM for the second.

In the case of B4, the Kd is reported as 0.74 nM.

B7 and B8 are within 1.5-fold of each other in koff: 0.00043 s⁻¹ for the first, 0.00044 s⁻¹ for the second.

B4 was tested, and the koff was 0.00032 s⁻¹.

B7 and B8 are within 1.5-fold of each other in kon: 310000 M⁻¹ s⁻¹ for the first, 290000 M⁻¹ s⁻¹ for the second.

Binder B4 has a kon of 430000 M⁻¹ s⁻¹.

biological target: T2, human CD47 on cells; assay: flow cytometry on CHO-K1/huCD47 cells; x axis Log(nM)
Protocol: as §3

B14 and B1 are within 1.5-fold of each other in “EC50 (read off the curve)” value: roughly 10 nM for the first, roughly 7 nM for the second.

With B13 the “EC50 (read off the curve)” value was roughly 5 nM.

biological target: T3, CD47 protein; assay: ELISA on CD47 protein; x axis is log10 of mAb (ng/ml)

Compared with B14, B10 is 4.5-fold lower in “EC50 (read off the curve)” value: roughly 9 ng/mL for the first, roughly 2 ng/mL for the second.

With B3 the “EC50 (read off the curve)” value was roughly 5 ng/mL.
